Measured values: the RNAGym collection of RNA variant scans (doi:10.1073/pnas.2313332121)

B1: TPR t1 (parent)
chain: GACCAAUCUGCCCUCAGAGCUCGAGAACAUCUUCGGAUGCAGAGGAGGCAGGCUUCGGUGGCGCGAUAGCGCCAACGUCCUCAACCUCCAAUGCAUCCCACCACAUGAUGAUGCCUGAAGAGCCUUGGUUUUUUG

Variants of: B1
Test: polymerase ribozyme fitness, log enrichment relative to wild type (log ratio); higher = more active; in vitro selection for triplet polymerase activity
Summary of the method: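 A single round of triplicate in vitro selection, including frozen incubation at −7 °C, was applied to PCR-built, transcribed mutant libraries of each subunit of a heterodimeric triplet polymerase ribozyme. Illumina sequencing of input and output libraries retained genotypes with ≥10 input reads and ≥1 read per output. Fitness is the base-2 logarithm of genotype enrichment divided by wild-type enrichment, from inverse-variance-weighted replicate averages.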

Variant | polymerase ribozyme fitness (log ratio)
C8A G69C G110C | -4.93
C53A U54A C62U C80A C114A C124G U125A | -6.53
C3A C8U | -1.3
C8G G19A C76A | -3.65
G47U G71A U112C | -0.298
C8G C13A A18G C53A C88A U125G | -3.4
C4G C11U C13U G47U C72G | -5.03
G61C U78A U116G | -1.8
C22U A27C A41U A50U G60C C82U | -6.98
U33G C104U | -5.5
G52A G57A C82U C85A A121U | -1.13
U54G C123G | 0.306
C15G U59C C86U U116G | -4.2
G35C C72U | -4.96
A5U G44C G60U U96G G127A U131G | -3.9
A18C U92C C97U | -4.36
C15A C53A G77A C101G G120A C124A | -1.12
A6C G61U U78C A100U G120A U131C | 0.181
U14G A27C C85A U109A C124A | -6.27
C15G C40A | -3.83
C4A G61A U78A G128U | -1.35
C15G A29G C88G U129A | -3.95
A6U A46U C115A | -2.18
A5C C64U | -0.365

Variant | polymerase ribozyme fitness (log ratio)
G44A C76A C123G | 0.122
C8G C28A C72A | -4.41
G51U G120A | -2.64
G69C C82A C97G U132A | -5.29
A2C C72A C115G | -3.29
A27U C114A | -3.53
C22U C82U | -4.56
U7A U38G C49A | -0.102
G61U C88U | -0.259
A6U C53G C82A A83G | -0.829
G48A A83U C102A | -2.24
A41U C80U C123A | -1.59
U7G A43U G48U G60C C115A U126A | -3.03
C3U C64U G71U C85G A121U | -4.22
C86G A108G U130A | -3.28
C3U U32C C101U G120C | -0.584
A18G C53A A100C A103G C114A | -5.14
G39C U116C | -2.01
C12U G63C C82U A103C | -6.59
G10A A26C G36U G45C G51U C70U C79A C98U C123U G127U | -8.21
C49U C89U | 0.0169
C89A G113C G117A | -5.73
G48U A50U G60A C86G | -2.89
G10C G60U G135C | -0.497

Variant | polymerase ribozyme fitness (log ratio)
C40U G93A | -1.09
C34G U38A G48A C53U A111U | -6
G63A A91G U129A | -3.01
A100C U109A | -6.83
A6U A84C C86G G93U | -2.38
C4A G48C G61A U81C U96A | -3.76
U21A C31U U78G C101G U106A G113C | -4.88
A18C G44U | -3.35
G17A C40U G60A C79G | -6.54
U9A G44C C80A U96C | -3.87
C11A C15G U21G G63U A90U G93U C115U C124U G127U | -6.26
G61U C62A | -5.14
U55A C62A U78C C79A U125G U133G | -3.28
G58A G71A U81G U132C | -3.8
G23U G42A A46U G69U U109A C123U | -5.99
G36C G45C | -2.04
U112C A118U | 1.35
A26U G36C | -4.29
A2U G47A C123A | -2.56
G65C C123G U133A | -4.9
A5U C11A C102A | -4.33
C49U G71A | -1.46
G61U U78G C79U G122U | 0.33
A41G G60A | -0.408

Variant | polymerase ribozyme fitness (log ratio)
C12U G44U A46U C85A | -4.14
C11G A41G C73G | -0.55
G71U U81C G93A G120A | -0.964
A5U G61A | -0.0027
G19U A43C | -3.38
C80U A90U | -0.991
C8U G44A G60A A121C G122U | -1.04
A37C A95U | -0.484
G44U C70U C72U C79U G122A | -2.61
G42C C62U U131C | -1.44
A37C G61U C104U U112C | 1.04
C15A U106A | -1.94
U59A G63U | -1.93
A68U A111C | -7.12
A2C A66U | -2.86
A103G U130A | -5.53
C98A A100U U112A | -5.91
C12A U92A | -3.47
C34U C53G A66U C124A | -6.48
A26G G45A G120C | -1.66
G23A G48U | -5.02
A46U C73U | -1.08
G61U A108C | -3.81
A46G G61A | 0.179

Variant | polymerase ribozyme fitness (log ratio)
G58C U59G C86G | -0.556
G48C A84G C85G C115A G127U | -4.98
U59A C62G | -5.21
G10C A37C A66U | -2.37
A2C C49A U87A C88A | -3.11
C8A C22G G61U A121U | -1.38
G63U G93A C124A | 0.423
U7G C11G C124U | 1.49
G44A G63A A84U | -2.6
C72G G120C G128C | -3.07
A41G G48U C62A C80U A91U C98U C123A | -7.74
U59G G63U U129C | -2.43
G63A U116C G127U U133A | -5.28
U78A U109C | -4.47
U9G A43C | -1.01
C13G A37U C53A C79A U87C U129C | -5.34
U21G A119G | -0.142
C85G U106A | -1.05
C8U A50G U78A C85A | -0.938
C12G C70G C85A | -3.7
A6C G47A | 0.295
G61A U106A G113C | -1.85
A2C A41U U78G | -3.61
U38G G52C U55G A74U | -2.31

Variant | polymerase ribozyme fitness (log ratio)
A37U C123U | 0.6
G47U G120U | -0.0894
A2G A37C A111G | -1.49
U7A A46G C70U A111C G113A | -3.8
C56G U112C | 1.26
C53U G110U | -1.81
C31U U59G C73U | -5.82
G48A U133G | -1.38
G10A C15A G44U C56U A74G | -3.61
A66C C82G | -2.06
A18U C70A G113A G122A | -4.58
G19U U55C | -4.3
A100U U112G | -0.123
C13A A27C G36A | -4.52
C11U U54A | -0.542
C11U C12A A41C C56G | -2.42
U92A G120A | -2.17
C4G C97A | -5.92
G61A A68G | -2.69
C56U U78C | -0.427
G19A U87G A105C A111C | -4.37
C70G U132G U133A | -2.52
C8U C13A G25U G39A G47U G63C G117C G120C | -7.2
C49G C56G | -2.98

Variant | polymerase ribozyme fitness (log ratio)
U21C G71U C86G G117A | -5.6
C79A G117C | -5.12
A68G C79G A105G G110U | -8.49
G48A C101U | -2.29
U9A C12U A27C C53U G63A A83C | -4.89
A37U G63U A105C | -5.31
G17U U112C | -0.756
U7A G36C G52A U55G | -0.803
C104A | -1.45
C11G A37C G61U | -0.241
G120A U130A | 0.684
C15U G52A G93A A95G | -2.44
C3A A5U G36C G47C A75U G77A A105G U106A C123U U130C | -2.36
C4U C8G C34G A46U U59G C62U C102U G113U A121C U131G | -6.55
C40G G52A U78A C101A G120U | -2
A5G A6G G52A A83U | -2.69
G36C C64U | -1.65
C8G A46G G107A | -4.69
A26C A29G U112G | -7.05
C13A C70G U112A C123U | -4
A6U G36C A37G A43G | -2.57
G36U A50C G60A | -2
C56A C94U | -0.146
